These results are taken from patent US20090041754A1 (Astellas, published 2009).

The target of this experiment is T1, human ATP5B protein with C-terminal V5 epitope, made in vitro from pcDNA-ATP5B (human, UniProt P06576 1-529, radioisotope-labelled (L-[35S] Pro-mix)).
T1 construct: In vitro transcription and translation (TNT system); about 60 kDa; also called wild type ATP5B
Kind of experiment: GST pull-down of 35S-labelled in vitro translated human ATP5B with GST-DHFR on beads, autoradiography; condition without MTX-phenformin. Here is the method:
A 15 μl portion of this human ATP5B protein preparation liquid and 1 μg for each of the GST protein or GST-DHFR, purified on the glutathione Sepharose beads, were mixed and shaken at 4° C. for 1 hour after adding 0.3 ml of buffer A thereto. Thereafter, the protein binding to the GST protein or GST-DHFR on beads was co-precipitated by centrifugation.

T1 sequence (P06576 whole entry): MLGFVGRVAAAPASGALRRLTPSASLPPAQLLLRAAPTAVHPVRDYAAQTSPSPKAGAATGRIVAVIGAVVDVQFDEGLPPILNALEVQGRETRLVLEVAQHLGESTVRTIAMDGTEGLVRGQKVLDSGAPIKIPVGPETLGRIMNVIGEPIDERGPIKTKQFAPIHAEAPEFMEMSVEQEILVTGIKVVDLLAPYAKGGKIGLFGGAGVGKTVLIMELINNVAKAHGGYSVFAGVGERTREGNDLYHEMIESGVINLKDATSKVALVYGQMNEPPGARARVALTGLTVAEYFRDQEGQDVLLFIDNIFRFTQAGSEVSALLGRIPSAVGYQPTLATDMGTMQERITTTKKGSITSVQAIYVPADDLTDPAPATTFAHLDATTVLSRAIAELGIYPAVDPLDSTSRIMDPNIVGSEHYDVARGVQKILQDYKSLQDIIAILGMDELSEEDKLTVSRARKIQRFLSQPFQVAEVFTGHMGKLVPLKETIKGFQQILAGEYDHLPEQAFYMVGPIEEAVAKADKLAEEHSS

B1: GST fusion DHFR protein (other, human, UniProt P00374 1-187, looked up)
chain: MVGSLNCIVAVSQNMGIGKNGDLPWPPLRNEFRYFQRMTTTSSVEGKQNLVIMGKKTWFSIPEKNRPLKGRINLVLSRELKEPPQGAHFLSRSLDDALKLTEQPELANKVDMVWIVGGSSVYKEAMNHPGHLKLFVTRIMQDFESDTFFPEIDLEKYKLLPEYPGVLSDVQEEKGIKYKFEVYEKND
notes: domain: complete length; Expressed in E. coli BL21 and purified on glutathione Sepharose beads (45 kDa); also called GST-DHFR; not shown: GST tag of vector pGEX-6P-1 (Amersham)
Consider B1, for which the binding result was “no binding”.
